Experimental findings from PMC10298792, “Structural basis for proapoptotic activation of Bak by the noncanonical BH3-only protein Pxt1” (PLOS Biology, 2023) are described below.

As a reminder, the Kd is a measure of binding affinity in units of concentration. For orientation: stoichiometry N means the number of molecules, sites or subunits per partner or assembly.

B3: C-terminal His6-tagged human Bak (residues 23–185;C166S) (domain or fragment, UniProt Q16611 23-185, looked up)
chain: SEEQVAQDTEEVFRSYVFYRHQQEQEAEGVAAPADPEMVTLPLQPSSTMGQVGRQLAIIGDDINRRYDSEFQTMLQHLQPTAENAYEYFTKIATSLFESGINWGRVVALLGFGYRLALHVYQHGLTGFLGQVTRFVVDFMLHHSIARWIAQRGGWVAALNLGN
notes: also called recombinant Bak; source: E. coli BL21(DE3) RIL, purified (Ni-NTA, Superdex 75 gel filtration); not shown: His6, C-terminal, kept

Data set [1] addresses B3. Description: ITC; Pxt1 peptide (0.8 mM) titrated into 80 μM recombinant Bak; no detergent; performed as in ref. 27. Particulars: both partners purified. A general note: Isothermal titration calorimetry measures the heat released or taken up as one component is titrated into another.
Data set [2] deals with T1, recombinant human Bax (residues 1–172;C62S·C126S) (human, UniProt Q07812 1-172, C62S | C126S).
T1 construct: Bax, human, residues 1-172 with C62S and C126S, cloned into pET21a-m1; also called recombinant Bax; source: E. coli BL21(DE3) RIL, purified (Ni-NTA, Superdex 75 gel filtration)
T1 sequence (Q07812 1-172 C62S/C126S): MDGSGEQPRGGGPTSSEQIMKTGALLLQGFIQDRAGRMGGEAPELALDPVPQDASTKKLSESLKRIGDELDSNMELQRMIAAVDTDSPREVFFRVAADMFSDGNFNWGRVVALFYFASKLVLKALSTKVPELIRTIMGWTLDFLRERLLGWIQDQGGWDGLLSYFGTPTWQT
Nature of the data set: SEC; separately purified proteins mixed at a molar ratio of 1:3, incubated for 1 h; Superdex 200 increase 10/300 GL; no detergent; peak fractions on SDS–PAGE. To be noted: both partners purified. (SEC sorts molecules by how far they enter the pores of the column.)

Data set [3] deals with the molecule itself. Nature of the data set: SEC; 100 μM Bak, 1 mM Pxt1 BH3 peptide and 1% CHAPS; Superdex 75 10/300 GL.

B1: synthetic human Pxt1(76–101) peptide (peptide, UniProt Q8NFP0 76-101, looked up)
peptide: EEIIHKLAMQLRHIGDNIDHRMVRED
notes: Pxt1, human, residues 76-101; also called human Pxt1 BH3; Pxt1 BH3 peptide; source: synthetic peptide (Peptron, Korea)
On to B1, for which the Kd in data set [1] was 15.4 µM.

B2: human Pxt1(76–101) BH3 fragment, separately purified, as mixed with recombinant Bax (peptide, UniProt Q8NFP0 76-101, looked up)
chain: EEIIHKLAMQLRHIGDNIDHRMVRED
notes: Pxt1, human, BH3 domain, residues 76-101, cloned into pET21a-m2; it is surmised to be the recombinant pET21a-m2 product and not the synthetic peptide; also called Pxt1 BH3 fragment; human Pxt1 BH3 domain; source: separately purified (the recombinant construct was made in E. coli BL21(DE3) RIL)
In the case of B2, the binding result in data set [2] is “binds”.

With B3, the “stoichiometry N” value in data set [3] worked out at 2.
